Data taken from IntAct's records for PubMed 22841714.

B1: ADP-ribosylation factor 6 (Mus musculus), P62331 (parent)
chain: MGKVLSKIFGNKEMRILMLGLDAAGKTTILYKLKLGQSVTTIPTVGFNVETVTYKNVKFNVWDVGGQDKIRPLWRHYYTGTQGLIFVVDCADRDRIDEARQELHRIINDREMRDAIILIFANKQDLPDAMKPHEIQEKLGLTRIRDRNWYVQPSCATSGDGLYEGLTWLTSNYKS
partner: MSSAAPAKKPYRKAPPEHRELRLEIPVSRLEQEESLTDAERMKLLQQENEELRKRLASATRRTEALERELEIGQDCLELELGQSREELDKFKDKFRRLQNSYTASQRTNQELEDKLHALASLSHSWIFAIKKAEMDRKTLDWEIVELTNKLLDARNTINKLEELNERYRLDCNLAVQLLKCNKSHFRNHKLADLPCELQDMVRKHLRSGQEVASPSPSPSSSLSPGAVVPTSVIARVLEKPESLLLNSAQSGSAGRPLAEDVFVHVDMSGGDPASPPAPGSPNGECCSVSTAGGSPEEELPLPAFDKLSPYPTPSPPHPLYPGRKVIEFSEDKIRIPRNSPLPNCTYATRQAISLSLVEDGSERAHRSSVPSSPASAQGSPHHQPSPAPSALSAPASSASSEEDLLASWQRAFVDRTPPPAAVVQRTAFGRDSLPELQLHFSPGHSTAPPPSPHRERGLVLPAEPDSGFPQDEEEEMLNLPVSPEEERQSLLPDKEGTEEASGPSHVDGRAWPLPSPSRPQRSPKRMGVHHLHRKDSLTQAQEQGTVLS

Variants of: B1
Conditions: with tjap1_mouse Tjap1, Q9DCD5

Row | effect of a mutation on the interaction | Variant
1 | disrupting interaction | T44N
